The results in this text go back to article doi:10.1101/2024.03.27.586992, “Molecular basis for condensin enrichment at pericentromeres” (bioRxiv, 2024).

What all share (conditions): both partners purified
For experiment [1], the target named is T1, Ycg1 (subunit within the purified pentameric condensin holocomplex) (S. cerevisiae, UniProt Q06680 1-1035).
T1 construct: Ycg1, HAWK subunit of S. cerevisiae condensin; Stood in the assay as a subunit of m2; made a molecule for the cross-links to Sgo1; source: purified from yeast as part of the pentameric condensin complex
T1 sequence (looked up): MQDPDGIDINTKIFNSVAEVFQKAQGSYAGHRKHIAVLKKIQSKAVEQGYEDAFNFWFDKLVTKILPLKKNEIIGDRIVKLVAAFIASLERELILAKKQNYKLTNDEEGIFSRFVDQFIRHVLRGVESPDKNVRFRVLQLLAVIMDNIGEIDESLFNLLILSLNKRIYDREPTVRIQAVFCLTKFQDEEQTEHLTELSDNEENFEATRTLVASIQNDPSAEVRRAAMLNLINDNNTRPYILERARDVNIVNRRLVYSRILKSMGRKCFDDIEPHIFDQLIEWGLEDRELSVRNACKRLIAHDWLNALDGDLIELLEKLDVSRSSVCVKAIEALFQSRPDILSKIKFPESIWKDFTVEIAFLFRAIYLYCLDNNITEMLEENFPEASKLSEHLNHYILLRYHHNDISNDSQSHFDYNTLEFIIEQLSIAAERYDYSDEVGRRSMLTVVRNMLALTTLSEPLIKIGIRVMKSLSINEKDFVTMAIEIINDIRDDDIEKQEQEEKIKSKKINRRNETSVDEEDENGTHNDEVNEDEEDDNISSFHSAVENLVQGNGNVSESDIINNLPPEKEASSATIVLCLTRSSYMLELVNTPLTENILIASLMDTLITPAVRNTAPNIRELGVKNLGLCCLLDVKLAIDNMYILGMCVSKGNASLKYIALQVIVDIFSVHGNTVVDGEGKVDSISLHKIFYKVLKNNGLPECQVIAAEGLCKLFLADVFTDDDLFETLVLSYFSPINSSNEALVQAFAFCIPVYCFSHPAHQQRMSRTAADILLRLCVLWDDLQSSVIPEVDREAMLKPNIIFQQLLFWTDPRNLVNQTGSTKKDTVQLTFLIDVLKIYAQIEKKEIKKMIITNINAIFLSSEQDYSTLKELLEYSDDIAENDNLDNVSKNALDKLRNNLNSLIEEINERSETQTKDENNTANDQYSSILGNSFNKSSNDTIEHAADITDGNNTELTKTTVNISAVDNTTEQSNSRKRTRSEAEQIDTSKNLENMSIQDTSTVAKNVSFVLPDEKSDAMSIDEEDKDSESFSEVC
Kind of experiment: cross-linking; BS3 cross-linking mass spectrometry of full length Sgo1 with condensin holo-complex, 1:1 (w:w); 25 mM HEPES pH7.5, 150 mM NaCl, 5% glycerol, 1mM DTT; 2 hours on ice; crosslinks with score>10.5.

The next experiment has as its target T2, Ycg1(6-932, Δ499-555) (S. cerevisiae, UniProt Q06680 6-932, Δ499-555).
T2 construct: Stood in the assay as a chain of m6; made a molecule for the cross-links
T2 sequence (looked up): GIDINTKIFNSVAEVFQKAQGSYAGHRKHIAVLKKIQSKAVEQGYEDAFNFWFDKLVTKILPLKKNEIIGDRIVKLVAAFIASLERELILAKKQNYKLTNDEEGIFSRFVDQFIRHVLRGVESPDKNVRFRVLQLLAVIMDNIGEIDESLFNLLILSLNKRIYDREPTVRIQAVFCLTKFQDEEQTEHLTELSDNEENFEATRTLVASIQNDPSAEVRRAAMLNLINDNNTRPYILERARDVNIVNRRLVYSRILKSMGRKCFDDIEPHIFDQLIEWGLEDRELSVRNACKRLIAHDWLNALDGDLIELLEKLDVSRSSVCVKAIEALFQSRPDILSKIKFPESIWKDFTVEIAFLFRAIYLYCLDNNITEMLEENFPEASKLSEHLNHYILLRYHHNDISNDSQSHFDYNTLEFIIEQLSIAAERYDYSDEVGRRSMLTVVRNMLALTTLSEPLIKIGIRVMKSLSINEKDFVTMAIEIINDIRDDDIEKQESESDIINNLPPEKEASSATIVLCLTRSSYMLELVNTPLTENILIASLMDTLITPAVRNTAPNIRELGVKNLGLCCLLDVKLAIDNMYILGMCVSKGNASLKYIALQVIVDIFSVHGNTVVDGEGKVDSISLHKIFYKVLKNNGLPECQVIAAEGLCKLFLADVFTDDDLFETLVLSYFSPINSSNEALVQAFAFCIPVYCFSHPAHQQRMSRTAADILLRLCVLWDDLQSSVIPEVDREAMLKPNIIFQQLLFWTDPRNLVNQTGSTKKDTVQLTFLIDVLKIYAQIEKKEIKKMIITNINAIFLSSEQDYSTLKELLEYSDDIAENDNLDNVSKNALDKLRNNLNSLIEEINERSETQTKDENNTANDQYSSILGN
As to the kind of experiment: cross-linking; BS3 cross-linking mass spectrometry; Sgo1: Ycg1-Brn1 molar ratio 1.5:1; 25 mM HEPES pH7.5, 500 mM NaCl, 10% glycerol; 2 hours on ice; crosslinks with score>10.5.

In experiment [2] the target is T3, Ycg1(6-932, Δ499-555)-Brn1(384-529) (S. cerevisiae, UniProt Q06680 6-932; P38170 384-529, Δ499-555).
T3 construct: Brn1, S. cerevisiae, residues 384-529; also called Ycg1-Brn1; Ycg1-short Brn1
T3 sequence (looked up) 1: T2 sequence (looked up)
T3 sequence (looked up) 2: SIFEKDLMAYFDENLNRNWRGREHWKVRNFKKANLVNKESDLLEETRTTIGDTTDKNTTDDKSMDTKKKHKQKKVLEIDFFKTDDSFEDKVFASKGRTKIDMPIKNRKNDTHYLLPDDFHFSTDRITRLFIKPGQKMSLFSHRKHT
As to the kind of experiment: co-IP; two purified recombinant proteins incubated 2.5 hours with anti-GFP-coupled dynabeads (GFP-Sgo1 variant held); 25 mM HEPES pH 7.5, 500 mM NaCl, 10 % glycerol, 1 mM DTT, 0.1 % NP-40; silver stain.

Experiment [3] addresses T3, Ycg1(6-932, Δ499-555)-Brn1(384-529). Kind of experiment: co-IP; two purified recombinant proteins incubated 2.5 hours with anti-V5-coupled dynabeads (V5-Sgo1 held); 25 mM HEPES pH 7.5, 500 mM NaCl, 10 % glycerol, 1 mM DTT, 0.1 % NP-40; silver stain or immunoblot. In general terms: In western blotting, separated proteins are transferred to a membrane and probed.

B1: V5-Sgo1 (FL) (natural protein, S. cerevisiae, UniProt Q08490 1-590, looked up)
chain: MPKRKIAPNKESSRRTVSHDDLTPQIQEFQNLMDLESQKVENIRQSYSRQNSLLAKDNSILKIKVNSLEKKISQLVQENVTLRSKTSISEAIYRERLSNQLQVIENGIIQRFDEIFYMFENVRKNENLPSSSLRTMLKRTSSRSRSCSLSSPTYSKSYTRLSNHENNLSHESSFNKDDGPDLEPKAKKRKSSRRQSMFVSTSLEPEDETGENEPMMENSSVEVPAESHESAQVEETIDALNPEEENSDSVSNFTNSIIEYSIPEENPTEPEHSSSKLEIFNDSTNMLSTVPSNPLPLPLPGPSATLPTTTSDASTVYPSSSSSTNSHPKTKIKHSMKPPRIELKKKVIDEVMPVSNMSSNSEISFTRTRRTRGKAVDYTLPSLRAKMRRPSEKLVDATTVIDIHDLQVSKRNRETSHKRKSLSQDSIPDEPQLREVVVSKDYGTPKGKKTEDEIHEDTAHLMTTSNNNSNNKNEKKLTSNNSPKKSSPLLDITNKSENKKKSTRTKKLFKNAIVNNLSDENSTTRPSKSSKGTSNNNNNYNNFDNNNSNINNVNNKSVSFRLNEDDLAVFDLFGNGKAVKHQPKTYRTKK
notes: Sgo1 (shugoshin), S. cerevisiae, full length; Written V5-Sgo1; also called full length Sgo1; shugoshin; source: protease-deficient yeast strain (AM8184), purified (Ni2+ HiTrap IMAC, Superose 6 gel filtration)
Turning to B1, the binding result in experiment [1] is “binds”.

B2: Brn1(384-529) (domain or fragment, S. cerevisiae, UniProt P38170 384-529, looked up)
chain: T3 sequence (looked up) 2
notes: Brn1, S. cerevisiae, residues 384-529; Stood in the assay as a chain of m6; made a molecule for the cross-links; also called short Brn1
Regarding B2, the binding result with Ycg1(6-932, Δ499-555) was “binds”.

B3: GFP-Sgo1 (472-530) (domain or fragment, S. cerevisiae, UniProt Q08490 472-530, looked up)
chain: KNEKKLTSNNSPKKSSPLLDITNKSENKKKSTRTKKLFKNAIVNNLSDENSTTRPSKSS
notes: Sgo1, S. cerevisiae, residues 472-530 (holds CR1); also called wild type; source: E. coli BL21(DE3), purified (Ni-NTA resin, dialysis)
On to B3, for which the binding result in experiment [2] is reported as “binds”.

B4: V5-Sgo1 (350-590) (domain or fragment, S. cerevisiae, UniProt Q08490 350-590, looked up)
chain: EVMPVSNMSSNSEISFTRTRRTRGKAVDYTLPSLRAKMRRPSEKLVDATTVIDIHDLQVSKRNRETSHKRKSLSQDSIPDEPQLREVVVSKDYGTPKGKKTEDEIHEDTAHLMTTSNNNSNNKNEKKLTSNNSPKKSSPLLDITNKSENKKKSTRTKKLFKNAIVNNLSDENSTTRPSKSSKGTSNNNNNYNNFDNNNSNINNVNNKSVSFRLNEDDLAVFDLFGNGKAVKHQPKTYRTKK
notes: Sgo1, S. cerevisiae, residues 350-590 (C-terminal region); also called C-terminus of Sgo1 (350-590); C-Sgo1; source: protease-deficient yeast strain (AM8184), galactose induced, purified as V5-Sgo1 (FL) (Ni2+ IMAC, gel filtration)
On to B4, for which the binding result is recorded as “binds” in experiment [3] and “binds” with Ycg1(6-932, Δ499-555).

B5: GFP-Sgo1(350-590) (domain or fragment, S. cerevisiae, UniProt Q08490 350-590, looked up)
chain: B4 chain
notes: Sgo1, S. cerevisiae, residues 350-590; codon optimized gene; Written GFP-Sgo1; also called GFP-tagged C-Sgo1; wild type
Turning to B5, the binding result in experiment [2] is “binds”.
